In experiment [1] the target is DNAX Leukocyte Associated Immunoglobulin-like Receptor (DLAIR-1), the DX26 antigen / YE01 gene product (human). Briefly: flow cytometry (FACScan) on CEM T cell tumor cells; PE goat-anti-mouse-IgG second step. A general note: In flow cytometry, cells or beads pass a laser one at a time.
Experiment [2] has the same target. Briefly: flow cytometry (FACScan) on Peer T cell tumor cells; PE goat-anti-mouse-IgG second step.
Experiment [3] shares this target. As to the kind of experiment: flow cytometry (FACScan) on HUT78 T cell tumor cells; PE goat-anti-mouse-IgG second step.
The target is the same in experiment [4]. As to the kind of experiment: flow cytometry (FACScan) on Molt4 T cell tumor cells; PE goat-anti-mouse-IgG second step.
Experiment [5] has the same target. As to the kind of experiment: flow cytometry (FACScan) on U937 myeloid tumor cells; PE goat-anti-mouse-IgG second step.
Experiment [6] has the same target. As to the kind of experiment: flow cytometry (FACScan) on Jurkat T cell tumor cells; PE goat-anti-mouse-IgG second step.
Experiment [7] has the same target. Briefly: flow cytometry (FACScan) on HL60 promyeloid tumor cells; PE goat-anti-mouse-IgG second step.

DX26 monoclonal antibody: the mean fluorescence intensity in experiment [1] came out at 92.7; in experiment [2], 29.1; in experiment [3], 25.8; in experiment [4], 30.7; in experiment [5], 49.5; in experiment [6], 47.1. Further, the mean fluorescence intensity in experiment [7] came to 46.9.

Values taken from US20030105303A1.
